Assay results published in PMC2225448 (Structure(London, England:1993), 2007).

Biological target: Human SOCS4 (amino acids 274-437) (human, UniProt Q8WXH5 274-437)
Assay: crystal structure; ternary complex coexpressed and purified; crystals at 4°C from 10% PEG6000, 2M NaCl; molecular replacement, refined to 2.5 Å
Settings: both partners purified

Sequence of Human SOCS4 (amino acids 274-437) (Q8WXH5 274-437): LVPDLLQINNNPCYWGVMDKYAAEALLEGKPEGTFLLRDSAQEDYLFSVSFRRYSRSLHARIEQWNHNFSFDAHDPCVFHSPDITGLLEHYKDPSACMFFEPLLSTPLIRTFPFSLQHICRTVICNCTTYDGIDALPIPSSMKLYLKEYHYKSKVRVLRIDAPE

B1: ElonginB (natural protein, human)
chain: MDVFLMIRRHKTTIFTDAKESSTVFELKRIVEGILKRPPDEQRLYKDDQLLDDGKTLGECGFTSQTARPQAPATVGLAFRADDTFEALCIEPFSSPPELPDVMKPQDSGSSANEQAVQ
  binding result: binds
